# Experimental data taken from patent US20040147437A1, “Calycins” (priority 2000, published 2004).
# B1: ERABP (Arg 80 and Glu63 to isoleucine): Epididymal Retinoic acid Binding Protein with Arg 80 and Glu63 mutated to isoleucine (protein, UniProt P06911 1-188, looked up, variant E63I R80I)
# chain: MENIMPFALLGLCVGLAAGTEGAVVKDFDISKFLGFWYEIAFASKMGTPGLAHKEEKMGAMVVELKENLLALTTTYYSEDHCVLIKVTATEGDGPAKFQVTILSGKKEVVVEATDYLTYAIIDITSLVAGAVHRTMKLYSRSLDDNGEALYNFRKITSDHGFSETDLYILKHDLTCVKVLQSAAESRP
# Legend:
# [1] = Ligand binding affinity of proteins for selected ligands (FIG. 5): retinoic acid; conditions: mutant relative to native ERABP; see FIG. 5
# [2] = Ligand binding affinity of proteins for selected ligands (FIG. 5): retinol; conditions: see FIG. 5
# [3] = Ligand binding affinity of proteins for selected ligands (FIG. 5): retinal; conditions: see FIG. 5
molecule,measurement,setting,value
B1,affinity for retinoic acid,[1],reduced affinity
same,binding of retinol,[2],bind
same,binding of retinal,[3],bind
